According to patent publication US20130059772A1, “Use of Repeat Sequence Protein Polymers in Personal Care Compositions” (DANISCO US INC., priority 2003, published 2013):
Substitutions are numbered along the chain they refer to.

B1: SELP47E-3: SELP variant, 3 subunits, lysine substituted by glutamic acid (SEQ ID NO:28) (protein)
chain: MDPVVLQRRDWENPGVTQLNRLAAHPPFASDPMGAGAGSGAGAGSGVGVPGVGVPGVGVPGVGVPGEGVPGVGVPGVGVPGVGVPGAGAGSGAGAGSGAGAGSGAGAGSGVGVPGVGVPGVGVPGVGVPGEGVPGVGVPGVGVPGVGVPGAGAGSGAGAGSGAGAGSGAGAGSGVGVPGVGVPGVGVPGVGVPGEGVPGVGVPGVGVPGVGVPGAGAGSGAGAGSGAGAMDPGRYQDLRSHHHHHH
modifications: SELP 47E-3
B2: SELP47R-3: SELP variant, 3 subunits, lysine substituted by arginine (SEQ ID NO:26) (protein)
chain: B1 chain with D2P, E67R, E131R, E195R
modifications: SELP 47R-3
B3: SELP67K: SELP variant, 13 subunits (SEQ ID NO:30) (protein)
chain: MDPVVLQRRDWENPGVTQLNRLAAHPPFASDPMGVGVPGVGVPGVGVPGVGVPGKGVPGVGVPGVGVPGVGVPGAGAGSGAGAGSGAGAGSGAGAGSGAGAGSGAGAGSGVGVPGVGVPGVGVPGVGVPGKGVPGVGVPGVGVPGVGVPGAGAGSGAGAGSGAGAGSGAGAGSGAGAGSGAGAGSGVGVPGVGVPGVGVPGVGVPGKGVPGVGVPGVGVPGVGVPGAGAGSGAGAGSGAGAGSGAGAGSGAGAGSGAGAGSGVGVPGVGVPGVGVPGVGVPGKGVPGVGVPGVGVPGVGVPGAGAGSGAGAGSGAGAGSGAGAGSGAGAGSGAGAGSGVGVPGVGVPGVGVPGVGVPGKGVPGVGVPGVGVPGVGVPGAGAGSGAGAGSGAGAGSGAGAGSGAGAGSGAGAGSGVGVPGVGVPGVGVPGVGVPGKGVPGVGVPGVGVPGVGVPGAGAGSGAGAGSGAGAGSGAGAGSGAGAGSGAGAGSGVGVPGVGVPGVGVPGVGVPGKGVPGVGVPGVGVPGVGVPGAGAGSGAGAGSGAGAGSGAGAGSGAGAGSGAGAGSGVGVPGVGVPGVGVPGVGVPGKGVPGVGVPGVGVPGVGVPGAGAGSGAGAGSGAGAGSGAGAGSGAGAGSGAGAGSGVGVPGVGVPGVGVPGVGVPGKGVPGVGVPGVGVPGVGVPGAGAGSGAGAGSGAGAGSGAGAGSGAGAGSGAGAGSGVGVPGVGVPGVGVPGVGVPGKGVPGVGVPGVGVPGVGVPGAGAGSGAGAGSGAGAGSGAGAGSGAGAGSGAGAGSGVGVPGVGVPGVGVPGVGVPGKGVPGVGVPGVGVPGVGVPGAGAGSGAGAGSGAGAGSGAGAGSGAGAGSGAGAGSGVGVPGVGVPGVGVPGVGVPGKGVPGVGVPGVGVPGVGVPGAGAGSGAGAGSGAGAGSGAGAGSGAGAGSGAGAGSGVGVPGVGVPGVGVPGVGVPGKGVPGVGVPGVGVPGVGVPGAGAGSGAGAGSGAGAGSGAGAGSGAGAGSGAGAGSMDPGRYQDLRSHHHHHH
modifications: SELP 67K
B4: SELP58: SELP variant, 13 subunits (SEQ ID NO:31) (protein)
chain: MDPVVLQRRDWENPGVTQLNRLAAHPPFASDPMGVGVPGVGVPGVGVPGVGVPGVGVPGVGVPGVGVPGVGVPGAGAGSGAGAGSGAGAGSGAGAGSGAGAGSGVGVPGVGVPGVGVPGVGVPGVGVPGVGVPGVGVPGVGVPGAGAGSGAGAGSGAGAGSGAGAGSGAGAGSGVGVPGVGVPGVGVPGVGVPGVGVPGVGVPGVGVPGVGVPGAGAGSGAGAGSGAGAGSGAGAGSGAGAGSGVGVPGVGVPGVGVPGVGVPGVGVPGVGVPGVGVPGVGVPGAGAGSGAGAGSGAGAGSGAGAGSGAGAGSGVGVPGVGVPGVGVPGVGVPGVGVPGVGVPGVGVPGVGVPGAGAGSGAGAGSGAGAGSGAGAGSGAGAGSGVGVPGVGVPGVGVPGVGVPGVGVPGVGVPGVGVPGVGVPGAGAGSGAGAGSGAGAGSGAGAGSGAGAGSGVGVPGVGVPGVGVPGVGVPGVGVPGVGVPGVGVPGVGVPGAGAGSGAGAGSGAGAGSGAGAGSGAGAGSGVGVPGVGVPGVGVPGVGVPGVGVPGVGVPGVGVPGVGVPGAGAGSGAGAGSGAGAGSGAGAGSGAGAGSGVGVPGVGVPGVGVPGVGVPGVGVPGVGVPGVGVPGVGVPGAGAGSGAGAGSGAGAGSGAGAGSGAGAGSGVGVPGVGVPGVGVPGVGVPGVGVPGVGVPGVGVPGVGVPGAGAGSGAGAGSGAGAGSGAGAGSGAGAGSGVGVPGVGVPGVGVPGVGVPGVGVPGVGVPGVGVPGVGVPGAGAGSGAGAGSGAGAGSGAGAGSGAGAGSGVGVPGVGVPGVGVPGVGVPGVGVPGVGVPGVGVPGVGVPGAGAGSGAGAGSGAGAGSGAGAGSGAGAGSGVGVPGVGVPGVGVPGVGVPGVGVPGVGVPGVGVPGVGVPGAGAGSGAGAGSGAGAGSGAGAGSGAGAGSMDPGRYQLSAGRYHYQLVWCQK
modifications: SELP 58
B5: SELP47K-3: SELP variant, 3 subunits, no lysine substitution (SEQ ID NO:27) (protein)
chain: MDPVVLQRRDWENPGVTQLNRLAAHPPFASDPMGAGSGAGAGSGVGVPGVGVPGVGVPGVGVPGKGVPGVGVPGVGVPGVGVPGAGAGSGAGAGSGAGAGSGAGAGSGVGVPGVGVPGVGVPGVGVPGKGVPGVGVPGVGVPGVGVPGAGAGSGAGAGSGAGAGSGAGAGSGVGVPGVGVPGVGVPGVGVPGKGVPGVGVPGVGVPGVGVPGAGAGSGAGAGSGAGAMDPGRYQDLRSHHHHHH
modifications: SELP-47K-3
B6: SELP47E: SELP variant, 13 subunits, lysine substituted by glutamic acid (protein)
chain: MDPVVLQRRDWENPGVTQLNRLAAHPPFASDPMGAGSGAGAGSGVGVPGVGVPGVGVPGVGVPGEGVPGVGVPGVGEPGVGVPGAGAGSGAGAGSGAGAGSGAGAGSGVGVPGVGVPGVGVPGVGVPGEGVPGVGVPGVGEPGVGVPGAGAGSGAGAGSGAGAGSGAGAGSGVGVPGVGVPGVGVPGVGVPGEGVPGVGVPGVGEPGVGVPGAGAGSGAGAGSGAGAGSGAGAGSGVGVPGVGVPGVGVPGVGVPGEGVPGVGVPGVGEPGVGVPGAGAGSGAGAGSGAGAGSGAGAGSGVGVPGVGVPGVGVPGVGVPGEGVPGVGVPGVGEPGVGVPGAGAGSGAGAGSGAGAGSGAGAGSGVGVPGVGVPGVGVPGVGVPGEGVPGVGVPGVGEPGVGVPGAGAGSGAGAGSGAGAGSGAGAGSGVGVPGVGVPGVGVPGVGVPGEGVPGVGVPGVGEPGVGVPGAGAGSGAGAGSGAGAGSGAGAGSGVGVPGVGVPGVGVPGVGVPGEGVPGVGVPGVGEPGVGVPGAGAGSGAGAGSGAGAGSGAGAGSGVGVPGVGVPGVGVPGVGVPGEGVPGVGVPGVGEPGVGVPGAGAGSGAGAGSGAGAGSGAGAGSGVGVPGVGVPGVGVPGVGVPGEGVPGVGVPGVGEPGVGVPGAGAGSGAGAGSGAGAGSGAGAGSGVGVPGVGVPGVGVPGVGVPGEGVPGVGVPGVGEPGVGVPGAGAGSGAGAGSGAGAGSGAGAGSGVGVPGVGVPGVGVPGVGVPGEGVPGVGVPGVGEPGVGVPGAGAGSGAGAGSGAGAGSGAGAGSGVGVPGVGVPGVGVPGVGVPGEGVPGVGVPGVGEPGVGVPGAGAGSGAGAGSGAGAMDPGRYQDLRSHHHHHH
modifications: SELP 47E-13
notes: SELP variant, 13 subunits, lysine substituted by glutamic acid

test: Isoelectric point determination (IEF gel); format: physicochemical; conditions: SELP variants, Table 2
Description: In this Example, experiments performed to determine the isoelectric point and cloud point of SELP47K (Example 1) are described. The isoelectric point of SELP47K was determined by electrophoresing 5 mg/ml SELP47K solution using Isoelectric Focusing Electrophoresis (IEF) gel and Novex electrophoresis apparatus along with protein standards markers.

In order of falling “Isoelectric Point” value:
1. B3  10.53
2. B2  10.5
3. B5  9.52
4. B4  6.7
5. B1  5.9
6. B6  4.16
